B1: human CD99 expressed on 293T cells (ligand, UniProt P14209 23-185, looked up)
chain: DGGFDLSDALPDNENKKPTAIPKKPSAGDDFDLGDAVVDGENDDPRPPNPPKPMPNPNPNHPSSSGSFSDADLADGVSGGEGKGGSDGGGSHRKEGEEADAPGVIPGIVGAVVVAVAGAISSFIAYQKKKLCFKENAEQGEVDMESHRNANAEPAVQRTLLEK
notes: whole, on cells; also called hCD99; hCD99 transfectants
B2: mouse CD99 expressed on 293T cells (ligand, UniProt Q8VCN6 29-175, looked up)
chain: DDFNLGDALEDPNMKPTPKAPTPKKPSGGFDLEDALPGGGGGGAGEKPGNRPQPDPKPPRPHGDSGGISDSDLADAAGQGGGGAGRRGSGDEGGHGGAGGAEPEGTPQGLVPGVVAAVVAAVAGAVSSFVAYQRRRLCFREGGSAPV
modifications: sialylated O-glycans at Thr-45 and Thr-50 (cited as relevant for PILRα recognition)
notes: whole, on cells; also called mCD99; mCD99 transfectants
B3: mCD99-Fc (Fc fusion, mouse, UniProt Q8VCN6 29-137, looked up)
chain: DDFNLGDALEDPNMKPTPKAPTPKKPSGGFDLEDALPGGGGGGAGEKPGNRPQPDPKPPRPHGDSGGISDSDLADAAGQGGGGAGRRGSGDEGGHGGAGGAEPEGTPQG
modifications: three O-glycans NeuAc1-2Hex1HexNAc1
notes: also called mouse CD99-Fc; mCD99 (SPR analyte); not shown: Fc
B4: hNPDC1-Fc (Fc fusion)
chain: GHPDVAACPGSLDCALKRRARCPPGAHACGPCLQPFQEDQQGLCVPRMRRPPGGGRPQPRLEDEIDFLAQELARKESGQSTPPLPKDRQRLPEPATLGFSARGQGLELGLPSTPGTPTPTPHTSLGSPVSSDPVHMSPLEPRGGQGD
modifications: sialylated O-glycans
notes: Whole entry named; also called human NPDC1-Fc; hNPDC1 (SPR analyte); not shown: Fc
B5: hPILRαR126A expressed on 293T cells (receptor)
chain: QPSGSTGSGPSYLYGVTQPKHLSASMGGSVEIPFSFYYPWELATAPDVRISWRRGHFHRQSFYSTRPPSIHKDYVNRLFLNWTEGQKSGFLRISNLQKQDQSVYFCAVELDTRSSGRQQWQSIEGTKLSITQAVTTTTQRPSSMTTTWRLSSTTTTTGLRVTQGKRRSDSWHISLETAVGVAVAVTVLGIMILGLICLLRWRRRKGQQRTKATTPAREPFQNTEEPYENIRNEGQNTDPKLNPKDDGIVYASLALSSSTSPRAPPSHRPLKSPQNETLYSVLKA
notes: also called human PILRαR126A; hPILRαR126A transfectants
B6: mPILRαR133A expressed on 293T cells (receptor)
chain: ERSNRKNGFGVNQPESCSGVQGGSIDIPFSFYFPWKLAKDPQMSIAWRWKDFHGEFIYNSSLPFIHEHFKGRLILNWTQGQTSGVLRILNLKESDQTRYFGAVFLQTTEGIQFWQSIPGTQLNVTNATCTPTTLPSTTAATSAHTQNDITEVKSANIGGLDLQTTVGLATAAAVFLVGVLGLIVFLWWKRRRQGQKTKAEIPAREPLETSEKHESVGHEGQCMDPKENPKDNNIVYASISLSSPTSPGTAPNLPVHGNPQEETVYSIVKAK
notes: also called mouse PILRα133A; mPILRαR133A transfectants
B7: hNPDC1-His (ligand, not shown: small tags and cut ends)
chain: B4 chain
modifications: Sialylated O-glycans, which the patent says are needed for PILRα binding, cannot be carried by the letters
notes: also called hNPDC1-His (WT); hNPDC1-His (mut) (labels name the immobilised hPILRα form)

Legend:
hPILRα-Fc = target: T1, hPILRα-Fc (human; mouse, UniProt Q9UKJ1 20-197); experiment: flow cytometry, transfected 293T cells
T1 construct: also called human PILRα-Fc; WT hPILRα-Fc; not shown: Fc of mouse IgG2a (PILRα-mIgG2a, called PILRα-Fc)

mPILRα-Fc = target: T2, mPILRα-Fc (mouse, UniProt Q2YFS3 32-198); experiment: flow cytometry, transfected 293T cells
T2 construct: also called mouse PILRα-Fc; WT mPILRα-Fc; not shown: Fc of mouse IgG2a (PILRα-mIgG2a, called PILRα-Fc)
T2 sequence (Q2YFS3 32-198): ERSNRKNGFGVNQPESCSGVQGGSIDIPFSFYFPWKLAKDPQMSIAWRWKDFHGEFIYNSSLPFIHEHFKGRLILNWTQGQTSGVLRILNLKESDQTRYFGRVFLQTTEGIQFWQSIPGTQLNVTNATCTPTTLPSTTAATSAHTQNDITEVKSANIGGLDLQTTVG

[1] = target: B6; experiment: flow cytometry, transfected 293T cells, PILRα-positive cells gated
[2] = target: B5; experiment: as above
hCOLEC12-his = target: T3, hCOLEC12-his (human, UniProt Q5KU26 59-742, sialylated O-glycans and N-glycans); experiment: as above
T3 construct: Whole entry named; also called human COLEC12-his; hCOLEC12 (SPR); not shown: his tag
T3 sequence (Q5KU26 59-742 S522P/G606S limits assumed): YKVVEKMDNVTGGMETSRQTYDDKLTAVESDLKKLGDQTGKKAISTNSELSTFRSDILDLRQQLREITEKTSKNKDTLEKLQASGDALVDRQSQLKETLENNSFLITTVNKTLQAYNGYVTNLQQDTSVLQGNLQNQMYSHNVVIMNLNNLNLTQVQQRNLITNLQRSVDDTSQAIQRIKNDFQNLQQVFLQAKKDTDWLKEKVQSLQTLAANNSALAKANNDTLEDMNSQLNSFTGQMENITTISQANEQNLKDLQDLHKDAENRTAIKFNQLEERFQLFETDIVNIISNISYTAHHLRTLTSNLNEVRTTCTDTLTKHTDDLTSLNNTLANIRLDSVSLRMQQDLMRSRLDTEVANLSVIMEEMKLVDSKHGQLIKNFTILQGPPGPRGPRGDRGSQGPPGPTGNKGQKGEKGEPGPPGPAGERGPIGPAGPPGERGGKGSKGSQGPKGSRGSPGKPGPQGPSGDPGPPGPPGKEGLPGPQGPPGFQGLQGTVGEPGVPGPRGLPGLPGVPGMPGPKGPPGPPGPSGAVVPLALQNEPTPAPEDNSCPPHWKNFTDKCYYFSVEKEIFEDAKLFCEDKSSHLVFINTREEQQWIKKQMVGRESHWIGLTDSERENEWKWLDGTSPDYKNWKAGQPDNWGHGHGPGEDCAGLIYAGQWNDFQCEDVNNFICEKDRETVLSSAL

hPILRαR126A-Fc = target: T4, hPILRαR126A-Fc (human; mouse, UniProt Q9UKJ1 20-197); experiment: SPR, hPILRα R126A-Fc immobilized, response difference
T4 construct: Arg mutant of hPILRα-Fc; also called hPILRα R126-Fc; mutant hPILRα; not shown: Fc of mouse IgG2a (PILRα-mIgG2a, called PILRα-Fc)

B1
binding result (hPILRα-Fc): no binding
binding result (mPILRα-Fc): no binding

B2
binding result (hPILRα-Fc): binds
binding result (mPILRα-Fc): binds

B3
binding result [1]: no binding
binding result [2]: no binding

B4
binding result [1]: no binding
binding result [2]: no binding

B5
binding result (hCOLEC12-his): no binding

B6
binding result (hCOLEC12-his): no binding

B7
binding result (hPILRαR126A-Fc): no binding (tested: 1 µM)

Reference: US20150203575A1 (Genentech, published 2015)
